Patent publication US20060078562A1, “RAGE fusion proteins and methods of use” (priority 2004, published 2006)

How the values were obtained:
[1] = biological target: Fc receptor on THP-1 cells; test: cell-based or functional assay
amyloid-beta (A-beta) = test: Competition of a RAGE ligand with immobilized amyloid-beta for binding to the fusion protein; conditions: TTP-4000 initial solution diluted 1:10 or 1:30; RAGE ligand FAC 10 μM
Method: The fusion protein of the present invention may also be used to identify compounds having the ability to bind to RAGE.
Known RAGE ligands were coated onto the surface of Maxisorb plates at a concentration of 5 micrograms per well. Plates were incubated at 4° C. overnight. Following ligand incubation, plates were aspirated and a blocking buffer of 1% BSA in 50 mM imidizole buffer (pH 7.2) was added to the plates for 1 hour at room temperature. The plates were then aspirated and/or washed with wash buffer (20 mM Imidizole, 150 mM NaCl, 0.05% Tween-20, 5 mM CaCl2 and 5 mM MgCl2, pH 7.2). […] The fusion protein was added at increasing dilutions of the initial sample. The RAGE fusion protein was allowed to incubate with the immobilized ligand at 37° C. for one hour after which the plate was washed and assayed for binding of the fusion protein. Binding was detected by the addition of an immunodetection complex containing a monoclonal mouse anti-human IgG1 diluted 1:11,000 to a final assay concentration (FAC) of 21 ng/100 μL, a biotinylated goat anti-mouse IgG diluted 1:500, to a FAC of […], and an avidin-linked alkaline phosphatase. […] Binding of the complex to the immobilized fusion protein was quantified by measuring conversion of PNPP to para-nitrophenol (PNP) which was measured spectrophotometrically at 405 nm. […]

[2] = test system: S100b/RAGE-induced production of TNF-α in THP-1 cells; test: Inhibition of S100b/RAGE-induced production of TNF-α in THP-1 cells; assay type: cell-based; conditions: 10 μg protein
Method: THP-1 myeloid cells may be cultured in RPMI-1640 media supplemented with 10% FBS and induced to secrete TNF-α via stimulation of RAGE with S100b. When such stimulation occurs in the presence of a RAGE fusion protein, induction of TNF-α by S100b binding to RAGE may be inhibited.
Previous work has shown that the myeloid THP-1 cells may secrete TNF-α in response to RAGE ligands. In this assay, THP-1 cells were cultured in RPMI-1640 media supplemented with 10% FBS using a protocol provided by ATCC. […] The amount of TNF-α secreted by the THP-1 cells was measured 24 hours after the addition of the proteins to the cell culture using a commercially available ELISA kit for TNF-α (R&D Systems, Minneapolis, Minn.).

[3] = test system: Zucker diabetic rats, restenosis following vascular injury; test: Diabetic rat model of restenosis (balloon injury of left common carotid artery); assay type: in vivo; conditions: 4 days after injury; dose-responsive; FIG. 13B
Method: In these experiments, balloon injury of left common carotid artery was performed in Zucker diabetic and nondiabetic rats using standard procedure. […] A maintenance dose was delivered every other day until day 7 after injury (i.e., at day 1, 3, 5 and 7 after injury). The maintenance dose was high=1 mg/animal for one group, or low=0.3 mg/animal for the second group. To measure vascular smooth muscle cell (VSMC) proliferation, animals were sacrificed at 4 days and 21 days after injury. For the measurement of cell proliferation, 4 day animals received intraperitoneal injection of bromodeoxyuridine (BrDdU) 50 mg/kg at 18, 12, and 2 hours before euthanasia. After sacrifice, the entire left and right carotid arteries were harvested. Specimens were stored in Histochoice for at least 24 hours before embedding. Assessment of VSMC proliferation was performed using mouse anti-BrdU monoclonal antibody. A fluorescence labeled goat anti-mouse secondary antibody was applied. The number of BrdU-positive nuclei per section were counted by two observers blinded to the treatment regimens. The remaining rats were sacrificed at 21 days for morphometric analysis. […] All data were expressed as mean±SD. […]

[4] = test system: male C57BL/6 mice, cerebral ischemia; test: Mouse model of stroke (cerebral ischemia and reperfusion, infarct); assay type: in vivo; conditions: treated just prior to reperfusion
Method: For example, the RAGE fusion proteins of the present invention may also be used to treat stroke. […] In this model, the […] of a mouse is ligated and then reperfused to form an infart. To assess the efficacy of RAGE fusion proteins to treat or prevent stroke, mice were treated with sRAGE or TTP-4000 or control immunoglobulin just prior to reperfusion.
TTP-4000 was also compared to sRAGE in a disease relevant animal model of stroke. In this model, the […] of a mouse was ligated for 1 hour followed by 23 hours of reperfusion at which point the mice were sacrificed and the area of the infarct in the brain was assessed. […] After the nylon suture had been in place for 1 hour, the animal was re-anesthetized, rectal temperature was recorded and the suture was removed and the incision closed.
Infarct volume was determined by anesthetizing the animals with an intraperitoneal injection of sodium pentobarbital (50 mg/kg) and then removing the brains. […] The infarct area in each section was determined with a computer-assisted image analysis system, consisting of a Power Macintosh computer equipped with a Quick Capture frame grabber card, Hitachi CCD camera mounted on a camera stand. […] The images were captured and the total area of infarct was determined over the sections. […] Summing the infarct volumes of the sections calculated the total infarct volume. […]

## human IgG1 (heat aggregated) (antibody)
[1]
  TNF secreted by THP-1 cells in wells precoated with 10 ug/well heat aggregated human IgG1, 24 hours: > 40 ng/well

B1: TTP-4000: four domain RAGE-IgG Fc fusion protein, SEQ ID NO: 32: human RAGE amino acids 1-251 linked to CH2 and CH3 domains of human IgG (protein, listed as Homo sapiens)
chain: MAAGTAVGAWALVLSLWGAVVGAQNITARIGEPLVLKCKGAPKKPPQRLEWKLNTGRTEAWKVLSPQGGGPWDSVARVLPNGSLFLPAVGIQDEGIFRCQAMNRNGKETKSNYRVRVYQIPGKPEIVDSASELTAGVPNKVGTCVSEGSYPAGTLSWHLDGKPLVPNEKGVSVKEQTRRHPETGLFTLQSELMVTPARGGDPRPTFSCSFSPGLPRHRALRTAPIQPRVWEPVPLEEVQLVVEPEGGAVAPPSVFLFPPKPKDTLMISRTPEVTCVVVDVSHEDPEVKFNWYVDGVEVHNAKTKPREEQYNSTYRVVSVLTVLHQDWLNGKEYKCKVSNKALPAPIEKTISKAKGQPREPQVYTLPPSRDELTKNQVSLTCLVKGFYPSDIAVEWESNGQPENNYKTTPPVLDSDGSFFLYSKLTVDKSRWQQGNVFSCSVMHEALHNHYTQKSLSLSPGK
amyloid-beta (A-beta)
  binding of fusion protein to immobilized amyloid-beta blocked by the RAGE ligand: completely inhibited
[2]
  blocking S100b induction of TNF-α compared with sRAGE: at least as effective
[3]
  vascular smooth muscle cell proliferation (number of BrdU proliferating cells): significantly reduced
[4]
  reduction in infarct volume compared to sRAGE: significantly greater reduction
